Measured values reported in the RNAGym collection of RNA variant scans (doi:10.7554/elife.80360).

B1: HDV Ribozyme (parent)
chain: GGCCGGCAUGGUCCCAGCCUCCUCGCUGGCGCCGGCUGGGCAACAUUCCGAGGGGACCGUCCCCUCGGUAAUGGCGAAUGGGACCCA

Variants of: B1
Experiment: self-cleavage, relative activity (ratio to wild type); higher = more cleavage; co-transcriptional

| Variant | self-cleavage |
| --- | --- |
| GGCCGGCAUGGUCCCAGCCUACUCGCUGGCGCCGGCUGGGCAACAUUCCGAGGGGACCGUCUCCUCGGUAAUGGCGAAUGGGACCCA [C21A C62U] | 0.0519 |
| GGCCGGCAUGGUCCCAGCCUACUCGCUGGCGCCGGCUGGGCAACAUUCCGAGGGGACCGUCGCCUCGGUAAUGGCGAAUGGGACCCA [C21A C62G] | 0.138 |
| GGCCGGCAUGGUCCCAGCCUACUCGCUGGCGCCGGCUGGGCAACAUUCCGAGGGGACCGUCCCCUCGGUAAUGGCGAAUGGGACCCA [C21A] | 0.0856 |
| GGCCGGCAUGGUCCCAGCCUACUAGCUGGCGCCGGCUGGGCAACAUUCCGAGGGGACCGUCCCCUCGGUAAUGGCGAAUGGGACCCA [C21A C24A] | 0 |
| GGCCGGCAUGGUCCCAGCCUACUUGCUGGCGCCGGCUGGGCAACAUUCCGAGGGGACCGUCCCCUCGGUAAUGGCGAAUGGGACCCA [C21A C24U] | 0.0739 |
| GGCCGGCAUGGUCCCAGCCUACUGGCUGGCGCCGGCUGGGCAACAUUCCGAGGGGACCGUCCCCUCGGUAAUGGCGAAUGGGACCCA [C21A C24G] | 0 |
| GGCCGGCAUGGUCCCAGCCGCCUCGCUGGCGCCGGCUGGGCAACAGUCCGAGGGGACCGUCCCCUCGGUAAUGGCGAAUGGGACCCA [U20G U46G] | 0 |
| GGCCGGCAUGGUCCCAGCCUACUCGGUGGCGCCGGCUGGGCAACAUUCCGAGGGGACCGUCCCCUCGGUAAUGGCGAAUGGGACCCA [C21A C26G] | 0.266 |
| GGCCGGCAUGGUCCCAGCCUACUCGAUGGCGCCGGCUGGGCAACAUUCCGAGGGGACCGUCCCCUCGGUAAUGGCGAAUGGGACCCA [C21A C26A] | 0.0739 |
| GGCCGGCAUGGUCCCAGCCUACUCGCUGGCGCCGGCUGGGCACCAUUCCGAGGGGACCGUCCCCUCGGUAAUGGCGAAUGGGACCCA [C21A A43C] | 0.116 |
| GGCCGGCAUGGUCCCAGCCUACUCGCUGGCGCCGGCUGGGCAGCAUUCCGAGGGGACCGUCCCCUCGGUAAUGGCGAAUGGGACCCA [C21A A43G] | 0.132 |
| GGCCGGCAUGGUCCCAGCCGCCUCGCUGGCGCCGGCUGGGCAACAUUCCGAGGGGACCGUCCCCUCGGUAAUGACGAAUGGGACCCA [U20G G74A] | 0.0923 |
| GGCCGGCAUGGUCCCAGCCUACUCGCUGGCGCCGGCUGGGCAACAUUCGGAGGGGACCGUCCCCUCGGUAAUGGCGAAUGGGACCCA [C21A C49G] | 0.102 |
| GGCCGGCAUGGUCCCAGCCGCCUCGCUGGCGCCGGCUGGGCAACAUUCCGAGGGGACCGUCCCCUCGGCAAUGGCGAAUGGGACCCA [U20G U69C] | 0.185 |
| GGCCGGCAUGGUCCCAGCCGCCUCGCUGGCGCCGGCUGGGCAACAUUCCGAGGGGACCGUCCCCUCGGAAAUGGCGAAUGGGACCCA [U20G U69A] | 0 |
| GGCCGGCAUGGUCCCAGCCUACUCGCUGGCGCCGGCUGGGCAACAUUCCGAGGGGAUCGUCCCCUCGGUAAUGGCGAAUGGGACCCA [C21A C57U] | 0.192 |
| GGCCGGCAUGGUCCCAGCCUACUCGCUGGCGCCGGCUGGGCAACAUUCCGAGGGGAGCGUCCCCUCGGUAAUGGCGAAUGGGACCCA [C21A C57G] | 0.0811 |
| GGCCGGCAUGGUCCCAGCCUACUCGCUGGCGCCGGCUGGGCCACAUUCCGAGGGGACCGUCCCCUCGGUAAUGGCGAAUGGGACCCA [C21A A42C] | 0.0437 |
| GGCCGGCAUGGUCCCAGCCUACUCGCUGGCGCCGGCUGGGCAACAUUCCGAGGGGACCGUCCUCUCGGUAAUGGCGAAUGGGACCCA [C21A C63U] | 0.0462 |
| GGCCGGCAUGGUCCCAGCCUACUCGCUGGCGCCGGCUGGGCAACAUUCCGAGGGGACCGUCCACUCGGUAAUGGCGAAUGGGACCCA [C21A C63A] | 0.0314 |
| GGCCGGCAUGGUCCCAGCCGCCUCGCGGGCGCCGGCUGGGCAACAUUCCGAGGGGACCGUCCCCUCGGUAAUGGCGAAUGGGACCCA [U20G U27G] | 0.332 |
| GGCCGGCAUGGUCCCAGCCGCCUCGCAGGCGCCGGCUGGGCAACAUUCCGAGGGGACCGUCCCCUCGGUAAUGGCGAAUGGGACCCA [U20G U27A] | 0.266 |

| Variant | self-cleavage |
| --- | --- |
| GGCCGGCAUGGUCCCAGCCGCCUCGCCGGCGCCGGCUGGGCAACAUUCCGAGGGGACCGUCCCCUCGGUAAUGGCGAAUGGGACCCA [U20G U27C] | 0 |
| GGCCGGCAUGGUCCCAGCCUACUCGCUGGCGCCGGCUGGGCAACAUUUCGAGGGGACCGUCCCCUCGGUAAUGGCGAAUGGGACCCA [C21A C48U] | 0.0639 |
| GGCCGGCAUGGUCCCAGCCGCCUCGCUGGCGCCGGCUGGGCAACAUCCCGAGGGGACCGUCCCCUCGGUAAUGGCGAAUGGGACCCA [U20G U47C] | 0.133 |
| GGCCGGCAUGGUCCCAGCCUACUCGCUGGCGCCGGCUGGGCAACAUUCCGAGGGGACCGUCCCCUCGGUAAUGGCGAAUGGGACCCC [C21A A87C] | 0.0742 |
| GGCCGGCAUGGUCCCAGCCUACUCGCUGGCGCCGGCUGGGCAACAUUCCGAGGGGACCGUCCCCUCGGUAAUGGCGAAUGGGCCCCA [C21A A83C] | 0.0378 |
| GGCCGGCAUGGUCCCAGCCUACUCGCUGGCGCCGGCUGGGCAACAUUCCGAGGGGACCGUCCCCUCGGUAAUGGCGAAUGGGGCCCA [C21A A83G] | 0.0519 |
| GGCCGGCAUGGUCCCAGCCUACUCGCUGGCGUCGGCUGGGCAACAUUCCGAGGGGACCGUCCCCUCGGUAAUGGCGAAUGGGACCCA [C21A C32U] | 0.0978 |
| GGCCGGCAUGGUCCCAGCCUACUCGCUGGCGACGGCUGGGCAACAUUCCGAGGGGACCGUCCCCUCGGUAAUGGCGAAUGGGACCCA [C21A C32A] | 0.17 |
| GGCCGGCAUGGUCCCAGCCGCCUCGCUGGCGCCGGCUGGGCAACAUUCCGAGGGGACCGUCCCCUCGGUAAUGGCGAAUCGGACCCA [U20G G80C] | 0.0519 |
| GGCCGGCAUGGUCCCAGCCUACUCGCUGGCGCCGGCUGGGCAACAUUCCGAGGGGACCGUCCCCUCGGUUAUGGCGAAUGGGACCCA [C21A A70U] | 0 |
| GGCCGGCAUGGUCCCAGCCGCCUCGCUGGCGCCGGCUGGGCAACAUUCCGAGGGGACCGUCCCCUCGGUAAUGGCGAAUGUGACCCA [U20G G81U] | 0 |
| GGCCGGCAUGGUCCCAGCCGCCUCGCUGGCGCCGGCUGGGCAACAUUCCGAGGGGACCGUCCCCUCGGUAAUGGCGAAUGAGACCCA [U20G G81A] | 0.108 |
| GGCCGGCAUGGUCCCAGCCUACUCGCUGGCGCCGGCUGGGCAACAUUCCGAGGGGACCGUCCCCUCGGUAAUGGCGGAUGGGACCCA [C21A A77G] | 0.0678 |
| GGCCGGCAUGGUCCCAGCCUACUCGCUGGCGCCGGCUGGGCAACAUUCCGAGGGGCCCGUCCCCUCGGUAAUGGCGAAUGGGACCCA [C21A A56C] | 0.0898 |
| GGCCGGCAUGGUCCCAGCCUACUCGCUGGCGCCGGCUGGGCAACAUUCCGAGGGGGCCGUCCCCUCGGUAAUGGCGAAUGGGACCCA [C21A A56G] | 0.109 |
| GGCCGGCAUGGUCCCAGCCUACUCGCUGGCGCCGGCUGGGCAACAUUCCGAGGGGACAGUCCCCUCGGUAAUGGCGAAUGGGACCCA [C21A C58A] | 0.104 |
| GGCCGGCAUGGUCCCAGCCUACUCGCUGGCGCCGGCUGGGCAACAUUCCGAGGGGACUGUCCCCUCGGUAAUGGCGAAUGGGACCCA [C21A C58U] | 0.0627 |
| GGCCGGCAUGGUCCCAGCCUAGUCGCUGGCGCCGGCUGGGCAACAUUCCGAGGGGACCGUCCCCUCGGUAAUGGCGAAUGGGACCCA [C21A C22G] | 0.108 |
| GGCCGGCAUGGUCCCAGCCUAAUCGCUGGCGCCGGCUGGGCAACAUUCCGAGGGGACCGUCCCCUCGGUAAUGGCGAAUGGGACCCA [C21A C22A] | 0.0898 |
| GGCCGGCAUGGUCCCAGCCGCCUCGCUGGCGCCGGCUGGGCAACAUUCCGAGGGGACCGACCCCUCGGUAAUGGCGAAUGGGACCCA [U20G U60A] | 0 |
| GGCCGGCAUGGUCCCAGCCUACUCGCUGGCGCCGGCUGGGCAACAUUCCGUGGGGACCGUCCCCUCGGUAAUGGCGAAUGGGACCCA [C21A A51U] | 0.0369 |
| GGCCGGCAUGGUCCCAGCCUACUCGCUGGCGCCGGCUGGGCAACAUUCCGGGGGGACCGUCCCCUCGGUAAUGGCGAAUGGGACCCA [C21A A51G] | 0.0326 |

| Variant | self-cleavage |
| --- | --- |
| GGCCGGCAUGGUCCCAGCCUACUCGCUGGCGCCGGCUGGGCAACAUUCCGCGGGGACCGUCCCCUCGGUAAUGGCGAAUGGGACCCA [C21A A51C] | 0.175 |
| GGCCGGCAUGGUCCCAGCCUACUCGCUGGCGCCGGCUGGGCAAAAUUCCGAGGGGACCGUCCCCUCGGUAAUGGCGAAUGGGACCCA [C21A C44A] | 0.0604 |
| GGCCGGCAUGGUCCCAGCCUACUCGCUGGCGCCGGCUGGGCAAGAUUCCGAGGGGACCGUCCCCUCGGUAAUGGCGAAUGGGACCCA [C21A C44G] | 0.0852 |
| GGCCGGCAUGGUCCCAGCCGCCGCGCUGGCGCCGGCUGGGCAACAUUCCGAGGGGACCGUCCCCUCGGUAAUGGCGAAUGGGACCCA [U20G U23G] | 0.185 |
| GGCCGGCAUGGUCCCAGCCGCCUCGCUGGCGCCGGCUGGGCAACAUUCCGAGGGGACCGUCCCCUCGGUAAGGGCGAAUGGGACCCA [U20G U72G] | 0 |
| GGCCGGCAUGGUCCCAGCCUACUCGCUGGGGCCGGCUGGGCAACAUUCCGAGGGGACCGUCCCCUCGGUAAUGGCGAAUGGGACCCA [C21A C30G] | 0.0652 |
| GGCCGGCAUGGUCCCAGCCUACUCGCUGGAGCCGGCUGGGCAACAUUCCGAGGGGACCGUCCCCUCGGUAAUGGCGAAUGGGACCCA [C21A C30A] | 0.0373 |
| GGCCGGCAUGGUCCCAGCCUACUCGCUGGUGCCGGCUGGGCAACAUUCCGAGGGGACCGUCCCCUCGGUAAUGGCGAAUGGGACCCA [C21A C30U] | 0.0519 |
| GGCCGGCAUGGUCCCAGCCGCCUCGCUGGCGCCGGCUGGGCAACAUUCCGAGGGGACCGUCCCCUCGGUAAUGGCCAAUGGGACCCA [U20G G76C] | 0.35 |
| GGCCGGCAUGGUCCCAGCCGCCUCGCUGGCGCCGGCUGGGCAACAUUCCGAGGGGACCGUCCCCUCGGUAAUGGCAAAUGGGACCCA [U20G G76A] | 0.214 |
| GGCCGGCAUGGUCCCAGCCGCCUCGCUGGCGCCGGCUGGGCAACAUUCCGAGGGGACCGUCCCCUCGGUAAUGGCGAAUGGUACCCA [U20G G82U] | 0.104 |
| GGCCGGCAUGGUCCCAGCCUACUCGCUGGCGCCGGCUGGGCAACUUUCCGAGGGGACCGUCCCCUCGGUAAUGGCGAAUGGGACCCA [C21A A45U] | 0.0923 |
| GGCCGGCAUGGUCCCAGCCGCCUCGCUGGCGCCGGCUGGGCAACAUUCCGAGGGGACCGUCCCCUCGGUAAUGGCGAAGGGGACCCA [U20G U79G] | 0.208 |
| GGCCGGCAUGGUCCCAGCCGCCUCGCUGGCGCCGGCUGGGCAACAUUCCGAGGGGACCGUCCCCUCGGUAAUGGCGAAAGGGACCCA [U20G U79A] | 0.175 |
| GGCCGGCAUGGUCCCAGCCGCCUCGCUGGCGCCGGCUGGGCAACAUUCCGAGGGGACCGUCCCCUCGGUAAUGGCGAACGGGACCCA [U20G U79C] | 0.0773 |
| GGCCGGCAUGGUCCCAGCCUACUCGCUGGCGCCGGCUGGGCAACAUUCCGAGGGGACCGUCCCCUCGGUAUUGGCGAAUGGGACCCA [C21A A71U] | 0.106 |
| GGCCGGCAUGGUCCCAGCCUACUCGCUGGCGCCGGCUGGGCAACAUUCCGAGGGGACCGUCCCCUCGGUAGUGGCGAAUGGGACCCA [C21A A71G] | 0.0573 |
| GGCCGGCAUGGUCCCAGCCUACUCGCUGGCGCCGGCUGGGCAACAUUCCGAGGGGACCGUUCCCUCGGUAAUGGCGAAUGGGACCCA [C21A C61U] | 0.0963 |
| GGCCGGCAUGGUCCCAGCCUACUCGCUGGCGCCGGCUGGGCAACAUUCCGAGGGGACCGUACCCUCGGUAAUGGCGAAUGGGACCCA [C21A C61A] | 0.0511 |
| GGCCGGCAUGGUCCCAGCCGCCUCGCUGGCGCCGGCAGGGCAACAUUCCGAGGGGACCGUCCCCUCGGUAAUGGCGAAUGGGACCCA [U20G U37A] | 0 |
